Test results: PMC2945410 (Journal of molecular biology, 2010)

Target: the molecule itself
Assay: SEC

B1: EAL domain of TBD1265 from Thiobacillus denitrificans (aa 487-758) (domain or fragment)
chain: not shown
modifications: Se-Met substituted (for the crystals)
For B1, which “stoichiometry N” value is on record?
Its value is 2.
